From the nanobody polyreactivity screen of Harvey et al. (2022)

Assay: yeast display, Sf9 membrane polyspecificity reagent, FACS + sequencing; frameworks hold sequencing errors
Outline: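 Synthetic nanobody libraries on Saccharomyces cerevisiae BJ5465 were galactose-induced for 36–48 hours, stained 1 hour at 4 °C with 10% biotinylated, detergent-solubilized Sf9 membrane reagent and enriched on streptavidin microbeads. FACS then separated cells into low and high (top ~1%) gates by anti-HA (expression) and streptavidin (reagent binding) fluorescence. Genes were colony-PCR amplified, MiSeq 2 × 250 sequenced and CDR-length filtered. A clone's polyreactivity label is that of its gate of origin.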

QVQLVESGGGLVQAGGSLRLSCAASGFIFPRNAMGWYRPAPGKERELVAAISRSGGRTYYADSVKGRFTISRDNAKNTVYLQMNSLKPEDTAVYYCNADLALRSRYGEYDYWGQGTQVTVSS
polyreactivity (PSR sort gate): high polyreactivity

QVQLVESGGGLVQAGGSLRLSCAASGFIFPRNAMGWYRQAPGKERELVAGITRGGSTNYADSVKGRFTISRDNAKNTVYLQMNSLKPEDTAVYYCAAKSYNYNRPYGWREYDYWGQGTQVTVSS
polyreactivity (PSR sort gate): high polyreactivity

QVQLVESGGGLVQAGGSLRLSCAASGFIFPRNVMGWYRQAPGKERELVAAISRSGGSTYYADSVKGRFTISRDNAKNTVYLQMNSLTPEDTAVYYCAKRPAYYYFVYQVPIGYDYWGQGTQVTVSS
polyreactivity (PSR sort gate): high polyreactivity

QVQLVESGGGLVQAGGSLRLSCAASGFIFPRYAMGWYRQAPGKERELVADISYSGGSTYYADSVKGRFTISRDNAKNTVYLQMNSLKPEDTAVYRPYAFGYWGQGTQVTVSS
polyreactivity (PSR sort gate): high polyreactivity

QVQLVESGGGLVQAGGSLRLSCAASGFIFPSYAMGWYRQAPGKERELVAAITSSGGSTYYADSVKGRFTISRDNAKNTVYLQMNSLKPEDTAVYYCNARYPGRARRYNYWGQGTQVTVSS
polyreactivity (PSR sort gate): high polyreactivity

QVQLVESGGGLVQAGGSLRLSCAASGFIFPTNVMGWYRQAPGKEREFVASITWRGGGTYYADSVKGRFTISRDNAKNTVYLPMNSLKPEDTAVYYCAAGRSWSSYWKYDYWGQGTQVTVSS
polyreactivity (PSR sort gate): low polyreactivity

QVQLVESGGGLVQAGGSLRLSCAASGFIFPTYAMGWYRQAPGKERELVATITSAVRTKYADSVKGRFTISRDNAKNTVYLQMNSLKPEDTAVYYSAAAYTVARFYRYYYWGQGTQVTVSS
polyreactivity (PSR sort gate): high polyreactivity

QVQLVESGGGLVQAGGSLRLSCAASGFIFPVYAMGWYTQGGGKERELVADISSDGSTNYADSVKGRFTISRDNAKNTVYLQMNSLKPEDTAVYYCAREDNLRHQSDSRYDYWGQGTQVTVSS
polyreactivity (PSR sort gate): low polyreactivity

QVQLVESGGGLVQAGGSLRLSCAASGFIFPWYAMGGYRQAPRKERELVAAITSGGTTYYADSVKGRFTISRDNAKNTVYLQMNSLKPEDTAVYYCAAQYYFYPHEFDYWGQGTQVTVSS
polyreactivity (PSR sort gate): low polyreactivity

QVQLVESGGGLVQAGGSLRLSCAASGFIFPYYAMGWYRQAPGKERELVAAITRSGGRTYYADSVKGRFTISRDNAKNTVYLQMNSLKPEDTAVYYCAVRYIRYRNLKYDFWGQGTHVTVSS
polyreactivity (PSR sort gate): high polyreactivity

QVQLVESGGGLVQAGGSLRLSCAASGFIFQAYALGWYRQAPGKERELVASISYSGSRTYYADSVKGRFTISRDNAKNTVYLQMNSLKPEDTAGYYCAARYGRYYKYNYWGQGTQVTVSS
polyreactivity (PSR sort gate): high polyreactivity

QVQLVESGGGLVQAGGSLRLSCAASGFIFQAYAMGWYRQAPGKERELVAAISSSGGSTYYADSVTGRFTISRDNAKNTVYLQMNSLKPEDTAVYYCAALRYVKMLAQAYEYWGQGTQVTVSS
polyreactivity (PSR sort gate): high polyreactivity

QVQLVESGGGLVQAGGSLRLSCAASGFIFQDYALGWYRKAPGKERELVAAITQSSGSTYYADSVKGRFTISRDNAKNTVYLQMNSLKPEDTAVYYCNTAYDFSRQASYDYWGQGTQVTVSS
polyreactivity (PSR sort gate): low polyreactivity

QVQLVESGGGLVQAGGSLRLSCAASGFIFQEYAMGWYRQAPGKERELVAAITSGGSTNYADSVKGRFTISRDNAKNTVYLQMNSLKPADTAVYYCNVDSPDYYYDYDYWGQGTQVTVSS
polyreactivity (PSR sort gate): low polyreactivity

QVQLVESGGGLVQAGGSLRLSCAASGFIFQPYAMGWYRQAPGKERELVAAITSRGGRTYYADSVKGRITISRDNAKNTVYLQMNSLKPEDTAVYYCNADIYASEYYYWGQGTQVTVSS
polyreactivity (PSR sort gate): low polyreactivity

QVQLVESGGGLVQAGGSLRLSCAASGFIFQSYAMGWYRQAPGKERELVAAITRSGGRTYYADSVKGRFTISRDNAKNTVYLQMNSLKPEDTAVYYCAAETSYPGIYRFYYWGQGTQVTVSS
polyreactivity (PSR sort gate): high polyreactivity

QVQLVESGGGLVQAGGSLRLSCAASGFIFQVYAMGWYRQAPGKERELVAAISDDGSTNYADSVKGRFTISRDNAKYTVYLQMNSLKPEDTAVYYCAKESWGRLYYRYDYWGQGTQVTVSS
polyreactivity (PSR sort gate): low polyreactivity
